Assay results reported in patent US20260183370A1 (ASCENDIS PHARMA GROWTH DISORDERS A S, published 2026).
Bridge positions count the residues as written; N and C are the ends. Side chains are listed from the residue outwards. Ends that are not written are not given here. * marks the point of attachment. Hexanoyl(6-maleimido) = O=C1C=CC(=O)N1CCCCCC(=O)*; reversible prodrug linker = not defined here

Legend:
[1] = biological target: T1, NPR-B receptor (natriuretic peptide receptor B), endogenous on NIH-3T3 cells (murine (endogenous in NIH-3T3 cells), UniProt Q6VVW5 17-1047); assay: cell-based or functional assay
T1 sequence (looked up): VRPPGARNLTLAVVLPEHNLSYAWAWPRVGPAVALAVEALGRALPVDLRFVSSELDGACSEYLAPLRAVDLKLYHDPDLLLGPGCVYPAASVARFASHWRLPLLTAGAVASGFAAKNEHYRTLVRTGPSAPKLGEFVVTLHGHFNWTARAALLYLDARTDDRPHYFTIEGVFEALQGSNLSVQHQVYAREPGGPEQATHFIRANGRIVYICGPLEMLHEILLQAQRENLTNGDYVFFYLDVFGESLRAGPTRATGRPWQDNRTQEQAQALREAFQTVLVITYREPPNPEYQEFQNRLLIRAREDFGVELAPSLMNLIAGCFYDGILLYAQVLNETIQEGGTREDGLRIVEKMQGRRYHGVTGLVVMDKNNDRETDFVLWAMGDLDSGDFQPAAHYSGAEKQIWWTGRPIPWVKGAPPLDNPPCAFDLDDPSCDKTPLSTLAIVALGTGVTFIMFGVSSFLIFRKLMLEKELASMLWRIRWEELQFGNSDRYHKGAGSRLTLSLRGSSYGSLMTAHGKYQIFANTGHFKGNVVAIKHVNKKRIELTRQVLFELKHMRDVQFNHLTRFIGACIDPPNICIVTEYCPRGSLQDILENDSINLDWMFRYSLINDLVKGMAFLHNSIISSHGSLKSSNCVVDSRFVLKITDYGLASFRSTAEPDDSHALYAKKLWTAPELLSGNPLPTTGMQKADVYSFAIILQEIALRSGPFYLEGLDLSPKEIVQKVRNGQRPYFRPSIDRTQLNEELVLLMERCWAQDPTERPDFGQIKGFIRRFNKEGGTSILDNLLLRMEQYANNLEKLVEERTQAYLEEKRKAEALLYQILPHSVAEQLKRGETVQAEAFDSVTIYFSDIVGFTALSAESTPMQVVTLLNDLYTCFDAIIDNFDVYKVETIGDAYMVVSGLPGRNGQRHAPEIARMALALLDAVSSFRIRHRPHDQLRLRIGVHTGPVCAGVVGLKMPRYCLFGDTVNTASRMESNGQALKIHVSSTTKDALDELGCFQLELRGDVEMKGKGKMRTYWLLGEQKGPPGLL

[2] = biological target: T2, NPR-C (natriuretic peptide receptor C), expressed on Hek293 cells (UniProt P17342 27-541, limits assumed); assay: competition with fluorescein-labelled CNP-38 27d on NPR-C expressing Hek293 cells, flow cytometry (MFI), 4PL fit; ratio to CNP-38
T2 construct: whole, on cells
T2 sequence (looked up): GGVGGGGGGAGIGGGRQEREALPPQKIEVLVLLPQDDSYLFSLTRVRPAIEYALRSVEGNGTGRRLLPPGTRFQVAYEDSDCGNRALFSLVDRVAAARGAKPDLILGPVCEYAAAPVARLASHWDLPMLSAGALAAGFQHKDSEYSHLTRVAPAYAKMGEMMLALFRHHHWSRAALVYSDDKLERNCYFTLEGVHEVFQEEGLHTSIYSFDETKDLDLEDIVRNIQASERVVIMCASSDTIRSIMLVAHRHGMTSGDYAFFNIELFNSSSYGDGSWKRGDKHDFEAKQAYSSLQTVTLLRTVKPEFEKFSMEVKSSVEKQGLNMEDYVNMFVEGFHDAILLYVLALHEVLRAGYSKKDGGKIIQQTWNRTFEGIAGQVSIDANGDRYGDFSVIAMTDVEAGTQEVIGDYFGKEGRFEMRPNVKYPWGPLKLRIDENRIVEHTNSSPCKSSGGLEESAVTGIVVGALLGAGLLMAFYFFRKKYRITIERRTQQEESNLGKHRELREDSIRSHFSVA
From the text: For the NPR—C affinity assay, a NPR—C expressing Hek293 cell line was developed. The coding region of the NPR—C sequence (BC131540) was cloned into a lentiviral vector under CMV promoter for constitutive receptor expression. A bicistronic element located on the vector for puromycin resistence was used as eukaryotic selection marker. After transduction, stably growing cell pools were subjected to qRT-PCR for confirmation of receptor mRNA-expression compared to parental Hek293 cells. An NPR—C-expressing cell pool was expanded and frozen as master cell bank for CNP sample testing.
For the assay, growing cells were trypsinized from the cell flask bottom, counted, and seeded in a 96-well plate (1.5×10⁵/well) and centrifuged. Supernatants were discarded. CNP standard and sample were serially diluted over 9 steps in PBS 0.2% BSA and transferred to the micro plate in duplicates and mixed with cells. […] Subsequently, cells were analyzed by flow cytometry using mean fluorescence intensity of the FITC channel (FL1, Beckman Coulter FC500MPL) as read out.

[3] = biological target: T1, NPR-B receptor (natriuretic peptide …); assay: cell-based or functional assay; remark: listed apart in the source

Row | Binder | EC50 compound/EC50 CNP-38 (residual NPR-B activity, cGMP production in NIH-3T3 cells) [1] | IC50 of PEGylated CNP-38/IC50 CNP-38 [2] | EC50 compound/EC50 CNP-38 (cGMP production in NIH-3T3 cells) [3]
1 | LQEHPNARKYKGANKKGLSKGCFGLKLDRIGSMSGLGC (5 kDa PEG stably attached through maleimidohexanoyl/thiol to the side chain of Lys26 (ring lysine); disulfide Cys22-Cys38) [Permanent Lys26 CNP-38 PEG 5 kDa conjugate 19e] | > 100 ratio | 1.1 ratio | 
2 | LQEHPNARKYKGANKKGLSKGCFGLKLDRIGSMSGLGC (disulfide 22-38; not fully specified (residue 26)) [Permanent Lys26 CNP-38 PEG4x10 kDa conjugate 12g] | > 100 ratio | 143 ratio | 
3 | LQEHPNARKYKGANKKGLSKGCFGLKLDRIGSMSGLGC (disulfide 22-38) |  |  | 1 ratio
4 | LQEHPNARKYKGANKKGLSKGCFGLKLDRIGSMSGLGC (not fully specified; Lys26 side chain attached through a reversible Asn-linker (maleimidohexanoyl) to a thiol arm of 4-arm-thiol-PEG 40 kDa; disulfide Cys22-Cys38) [Conjugate 31d (4-arm PEG 40 kDa, Lys26 CNP-38, reversible conjugate)] |  | 1.7 ratio | 
5 | LQEHPNARKYKGANKKGLSKGCFGLKLDRIGSMSGLGC (disulfide 22-38; not fully specified (residue 26), This is a reversible conjugate with an in vitro release half-life of 8.5 d) [Reversible Lys26 CNP-38 PEG2x20 kDa conjugate 10f] | > 100 ratio | 12 ratio | 
6 | LQEHPNARKYKGANKKGLSKGCFGLK([reversible prodrug linker-4x10 kDa PEG])LDRIGSMSGLGC (disulfide 22-38; reading uncertain, This is a reversible conjugate with an in vitro release half-life of 9.5 d) [Reversible Lys26 CNP-38 PEG4x10 kDa conjugate 11i] | > 100 ratio | 91 ratio | 
7 | {PEG 5 kDa-Hexanoyl(6-maleimido)}-LQEHPNARKYKGANKKGLSKGCFGLKLDRIGSMSGLGC (disulfide 22-38) [Permanent N-terminal CNP-38 PEG 5 kDa conjugate 15e] | > 5 ratio | 0.53 ratio | 
